The target of one test is Aβ42 fibers (UniProt P05067). As to the kind of experiment: ELISA, Aβ42 fibers on plate; IC50(variant)/IC50(SEQ ID NO: 3). For orientation: ELISA stands for enzyme-linked immunosorbent assay.
Chain of Aβ42 fibers (P05067 672-713 limits assumed): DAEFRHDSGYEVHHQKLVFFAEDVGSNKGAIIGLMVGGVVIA
In turn, “N1-N2-human IgG Fc fusion protein of SEQ ID NO: 3 with D178G (from UniProt P69168 19-274)” returned an IC50 Relative to SEQ ID NO: 3 of 0.2. Same read-out and setting: in the case of “N1-N2-human IgG Fc fusion protein of SEQ ID NO: 3 with D178Q” it was 0.6; in that of “N1-N2-human IgG Fc fusion protein of SEQ ID NO: 3 with D178S”, 0.3. The same measure, in the same setting: for “N1-N2-human IgG Fc fusion protein of SEQ ID NO: 3 with D178T” the value was 0.4. Same read-out and setting: for “N1-N2-human IgG Fc fusion protein of SEQ ID NO: 3 with F141D” the value was 0.2. As for “N1-N2-human IgG Fc fusion protein of SEQ ID NO: 3 with F141E (from UniProt P69168 19-274)”, the IC50 Relative to SEQ ID NO: 3 is 0.2. Same read-out and setting: in the case of “N1-N2-human IgG Fc fusion protein of SEQ ID NO: 3 with G48H” it was 1.8; in that of “N1-N2-human IgG Fc fusion protein of SEQ ID NO: 3 with G48K (from UniProt P69168 19-274)”, 1.1; in that of “N1-N2-human IgG Fc fusion protein of SEQ ID NO: 3 with G48R (from UniProt P69168 19-274)”, 1.9.

For “N1-N2-human IgG Fc fusion protein of SEQ ID NO: 3 with G48S”, the IC50 Relative to SEQ ID NO: 3 worked out at 1.2.

“N1-N2-human IgG Fc fusion protein of SEQ ID NO: 3 with G48T” came in with an IC50 Relative to SEQ ID NO: 3 of 1. The same measure, in the same setting: for “N1-N2-human IgG Fc fusion protein of SEQ ID NO: 3 with M135A (from UniProt P69168 19-274)” the value was 0.4; for “N1-N2-human IgG Fc fusion protein of SEQ ID NO: 3 with M135D (from UniProt P69168 19-274)”, 0.5; for “N1-N2-human IgG Fc fusion protein of SEQ ID NO: 3 with M135G”, 0.2. Still for that read-out and setting: in the case of “N1-N2-human IgG Fc fusion protein of SEQ ID NO: 3 with M135H (from UniProt P69168 19-274)” it was 0.1; in that of “N1-N2-human IgG Fc fusion protein of SEQ ID NO: 3 with M135N (from UniProt P69168 19-274)”, 0.3. In the case of “N1-N2-human IgG Fc fusion protein of SEQ ID NO: 3 with M135R (from UniProt P69168 19-274)”, the IC50 Relative to SEQ ID NO: 3 is 0.1. Take “N1-N2-human IgG Fc fusion protein of SEQ ID NO: 3 with M176G”: the IC50 Relative to SEQ ID NO: 3 amounted to 0.3.

“N1-N2-human IgG Fc fusion protein of SEQ ID NO: 3 with M176H” gave an IC50 Relative to SEQ ID NO: 3 of 0.4.

Consider “N1-N2-human IgG Fc fusion protein of SEQ ID NO: 3 with M176K (from UniProt P69168 19-274)”, for which the IC50 Relative to SEQ ID NO: 3 turned out to be 0.2. In turn, “N1-N2-human IgG Fc fusion protein of SEQ ID NO: 3 with M176N (from UniProt P69168 19-274)” gave an IC50 Relative to SEQ ID NO: 3 of 0.5. Substance “N1-N2-human IgG Fc fusion protein of SEQ ID NO: 3 with M176R” returned an IC50 Relative to SEQ ID NO: 3 of 0.2. The same measure, in the same setting: for “N1-N2-human IgG Fc fusion protein of SEQ ID NO: 3 with R140A” the value was 0.2; for “N1-N2-human IgG Fc fusion protein of SEQ ID NO: 3 with R140D”, 0.3.

The substance “N1-N2-human IgG Fc fusion protein of SEQ ID NO: 3 with R140E” gave an IC50 Relative to SEQ ID NO: 3 of 0.3. The same measure, in the same setting: in the case of “N1-N2-human IgG Fc fusion protein of SEQ ID NO: 3 with R140G (from UniProt P69168 19-274)” it was 0.2. “N1-N2-human IgG Fc fusion protein of SEQ ID NO: 3 with R140H” displayed an IC50 Relative to SEQ ID NO: 3 of 0.2. Still for that read-out and setting: for “N1-N2-human IgG Fc fusion protein of SEQ ID NO: 3 with S173G (from UniProt P69168 19-274)” the value was 0.2; for “N1-N2-human IgG Fc fusion protein of SEQ ID NO: 3 with S173P”, 0.4; for “N1-N2-human IgG Fc fusion protein of SEQ ID NO: 3 with T51G (from UniProt P69168 19-274)”, 0.8. “N1-N2-human IgG Fc fusion protein of SEQ ID NO: 3 with T51H (from UniProt P69168 19-274)” gave an IC50 Relative to SEQ ID NO: 3 of 1.5. Same read-out and setting: in the case of “N1-N2-human IgG Fc fusion protein of SEQ ID NO: 3 with T51K” it was 2.5; in that of “N1-N2-human IgG Fc fusion protein of SEQ ID NO: 3 with T51N”, 0.5; in that of “N1-N2-human IgG Fc fusion protein of SEQ ID NO: 3 with T51P”, 0.2.

With “N1-N2-human IgG Fc fusion protein of SEQ ID NO: 3 with T51Q”, the IC50 Relative to SEQ ID NO: 3 was determined as 0.8. Same read-out and setting: in the case of “N1-N2-human IgG Fc fusion protein of SEQ ID NO: 3 with T51R” it was 2. The same measure, in the same setting: in the case of “N1-N2-human IgG Fc fusion protein of SEQ ID NO: 3 with T56G” it was 0.1; in that of “N1-N2-human IgG Fc fusion protein of SEQ ID NO: 3 with T56H”, 0.77; in that of “N1-N2-human IgG Fc fusion protein of SEQ ID NO: 3 with T56R (from UniProt P69168 19-274)”, 0.8. Still for that read-out and setting: in the case of “N1-N2-human IgG Fc fusion protein of SEQ ID NO: 3 with W181G” it was 0.5. “N1-N2-human IgG Fc fusion protein of SEQ ID NO: 3 with W181H” showed an IC50 Relative to SEQ ID NO: 3 of 0.87. Same read-out and setting: in the case of “N1-N2-human IgG Fc fusion protein of SEQ ID NO: 3 with W181K” it was 0.3.

“N1-N2-human IgG Fc fusion protein of SEQ ID NO: 3 with Y54H” came in with an IC50 Relative to SEQ ID NO: 3 of 0.3. Still for that read-out and setting: in the case of “N1-N2-human IgG Fc fusion protein of SEQ ID NO: 3 with Y54P” it was 0.07.

The target in another test is Aβ42 fibers (UniProt P05067). As to the kind of experiment: cell-based or functional assay.
Turning to “N1-N2-hIgG1-Fc fusion protein (SEQ ID NO:1) (from UniProt O34714 1-385)”, the EC50, cellulose acetate filter retardation assay (disaggregation) came to 0.1 µM.

The record behind these values is patent publication US20160115223A1.
